Data from publication PMC4784862, “DNA Sequence Determinants Controlling Affinity, Stability and Shape of DNA Complexes Bound by the Nucleoid Protein Fis”.

How the values were obtained:
Conditions in all cases: protein: recombinant; chain copies: 2; label: 5'-32P
[1] = target: T1, Fis WT (UniProt P0A6R3 1-98); experiment: EMSA; t1/2 8 min; EMSA: 20 mM Hepes pH 7.5, 0.15 M NaCl, 5% glycerol, 0.5 mg/ml BSA, 1 mM EDTA, 1 mM DTT, 0.1 nM 32P 27 bp probe, 50 ug/ml poly dI/dC; temperature not stated
[2] = target: Fis R71A (UniProt P0A6R3 1-98, R71A); experiment: EMSA; EMSA: 20 mM Hepes pH 7.5, 0.15 M NaCl, 5% glycerol, 0.5 mg/ml BSA, 1 mM EDTA, 1 mM DTT, 0.1 nM 32P 27 bp probe, 50 ug/ml poly dI/dC; temperature not stated
[3] = target: T2, Fis T75A (UniProt P0A6R3 1-98, T75A); experiment: as above
[4] = target: T1, Fis WT; experiment: X-ray crystallography; 2.8 A; EMSA: 20 mM Hepes pH 7.5, 0.15 M NaCl, 5% glycerol, 0.5 mg/ml BSA, 1 mM EDTA, 1 mM DTT, 0.1 nM 32P 27 bp probe, 50 ug/ml poly dI/dC; temperature not stated
[5] = target: T1, Fis WT; experiment: X-ray crystallography; 2.7 A; EMSA: 20 mM Hepes pH 7.5, 0.15 M NaCl, 5% glycerol, 0.5 mg/ml BSA, 1 mM EDTA, 1 mM DTT, 0.1 nM 32P 27 bp probe, 50 ug/ml poly dI/dC; temperature not stated
[6] = target: T1, Fis WT; experiment: EMSA; t1/2 14 min; EMSA: 20 mM Hepes pH 7.5, 0.15 M NaCl, 5% glycerol, 0.5 mg/ml BSA, 1 mM EDTA, 1 mM DTT, 0.1 nM 32P 27 bp probe, 50 ug/ml poly dI/dC; temperature not stated
[7] = target: T1, Fis WT; experiment: EMSA; EMSA: 20 mM Hepes pH 7.5, 0.15 M NaCl, 5% glycerol, 0.5 mg/ml BSA, 1 mM EDTA, 1 mM DTT, 0.1 nM 32P 27 bp probe, 50 ug/ml poly dI/dC; temperature not stated
[8] = target: T1, Fis WT; experiment: EMSA; fold printed as 6; EMSA: 20 mM Hepes pH 7.5, 0.15 M NaCl, 5% glycerol, 0.5 mg/ml BSA, 1 mM EDTA, 1 mM DTT, 0.1 nM 32P 27 bp probe, 50 ug/ml poly dI/dC; temperature not stated
[9] = target: T1, Fis WT; experiment: EMSA; t1/2 4 min; EMSA: 20 mM Hepes pH 7.5, 0.15 M NaCl, 5% glycerol, 0.5 mg/ml BSA, 1 mM EDTA, 1 mM DTT, 0.1 nM 32P 27 bp probe, 50 ug/ml poly dI/dC; temperature not stated
[10] = target: Fis N73A (UniProt P0A6R3 1-98, N73A); experiment: EMSA; EMSA: 20 mM Hepes pH 7.5, 0.15 M NaCl, 5% glycerol, 0.5 mg/ml BSA, 1 mM EDTA, 1 mM DTT, 0.1 nM 32P 27 bp probe, 50 ug/ml poly dI/dC; temperature not stated
[11] = target: T2, Fis T75A; experiment: EMSA; error as printed; EMSA: 20 mM Hepes pH 7.5, 0.15 M NaCl, 5% glycerol, 0.5 mg/ml BSA, 1 mM EDTA, 1 mM DTT, 0.1 nM 32P 27 bp probe, 50 ug/ml poly dI/dC; temperature not stated
[12] = target: T1, Fis WT; experiment: EMSA; t1/2 41 min; Table 3 gives error 0.05; EMSA: 20 mM Hepes pH 7.5, 0.15 M NaCl, 5% glycerol, 0.5 mg/ml BSA, 1 mM EDTA, 1 mM DTT, 0.1 nM 32P 27 bp probe, 50 ug/ml poly dI/dC; temperature not stated
[13] = target: T1, Fis WT; experiment: X-ray crystallography; EMSA: 20 mM Hepes pH 7.5, 0.15 M NaCl, 5% glycerol, 0.5 mg/ml BSA, 1 mM EDTA, 1 mM DTT, 0.1 nM 32P 27 bp probe, 50 ug/ml poly dI/dC; temperature not stated
[14] = target: T1, Fis WT; experiment: X-ray crystallography; 2.9 A, C2; EMSA: 20 mM Hepes pH 7.5, 0.15 M NaCl, 5% glycerol, 0.5 mg/ml BSA, 1 mM EDTA, 1 mM DTT, 0.1 nM 32P 27 bp probe, 50 ug/ml poly dI/dC; temperature not stated
[15] = target: T1, Fis WT; experiment: EMSA; t1/2 4 min; EMSA: 20 mM Hepes pH 7.5, 0.15 M NaCl, 5% glycerol, 0.5 mg/ml BSA, 1 mM EDTA, 1 mM DTT, 0.1 nM 32P 27 bp probe, 50 ug/ml poly dI/dC; temperature not stated; remark: listed apart in the source
[16] = target: T1, Fis WT; experiment: EMSA; t1/2 22 min; EMSA: 20 mM Hepes pH 7.5, 0.15 M NaCl, 5% glycerol, 0.5 mg/ml BSA, 1 mM EDTA, 1 mM DTT, 0.1 nM 32P 27 bp probe, 50 ug/ml poly dI/dC; temperature not stated
[17] = target: T1, Fis WT; experiment: EMSA; t1/2 <0.25 min; EMSA: 20 mM Hepes pH 7.5, 0.15 M NaCl, 5% glycerol, 0.5 mg/ml BSA, 1 mM EDTA, 1 mM DTT, 0.1 nM 32P 27 bp probe, 50 ug/ml poly dI/dC; temperature not stated
[18] = target: T1, Fis WT; experiment: X-ray crystallography; 3.5 A, partially refined; EMSA: 20 mM Hepes pH 7.5, 0.15 M NaCl, 5% glycerol, 0.5 mg/ml BSA, 1 mM EDTA, 1 mM DTT, 0.1 nM 32P 27 bp probe, 50 ug/ml poly dI/dC; temperature not stated
[19] = target: T1, Fis WT; experiment: EMSA; affinity as F1, lifetime increased; EMSA: 20 mM Hepes pH 7.5, 0.15 M NaCl, 5% glycerol, 0.5 mg/ml BSA, 1 mM EDTA, 1 mM DTT, 0.1 nM 32P 27 bp probe, 50 ug/ml poly dI/dC; temperature not stated

Fis R71A, sequence (P0A6R3 whole entry R71A): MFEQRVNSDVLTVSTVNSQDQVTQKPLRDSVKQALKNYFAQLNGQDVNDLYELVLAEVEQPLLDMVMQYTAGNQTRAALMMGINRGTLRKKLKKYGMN
T1 sequence (P0A6R3 whole entry): as the sequence (P0A6R3 whole entry R71A) above, with A71R counted along it
T2 sequence (P0A6R3 whole entry T75A): as the sequence (P0A6R3 whole entry R71A) above, with A71R, T75A counted along it
Fis N73A, sequence (P0A6R3 whole entry N73A): as the sequence (P0A6R3 whole entry R71A) above, with A71R, N73A counted along it

B1: F34 (dsDNA)
DNA 1: AAGCTTGTTTGAATTTTGAGCAACGTT
DNA 2: AACGTTGCTCAAAATTCAAACAAGCTT
Binder B1 has a Kd [1] of 0.2 ± 0.1 nM.

B2: F32 (dsDNA)
DNA 1: AAATTTGGAGGAATTTTCTCCAAATTT
DNA 2: AAATTTGGAGAAAATTCCTCCAAATTT
For B2, the Kd [2] was 73 ± 11 nM, the Kd [3] was 76 ± 10 nM and the binding result [4] was “binds”.

B3: F31 (dsDNA)
DNA 1: AAATTTGTAGGAATTTTCTGCAAATTT
DNA 2: AAATTTGCAGAAAATTCCTACAAATTT
B3: binds [5].

B4: F1±8C (dsDNA)
DNA 1: AAATTCGTTTGAATTTTGAGCGAATTT
DNA 2: AAATTCGCTCAAAATTCAAACGAATTT
With B4 the Kd [6] was 0.7 ± 0.2 nM.

B5: INV±9-10T (dsDNA)
DNA 1: TTTATTGTTTGAATTTTGAGCAATAAA
DNA 2: TTTATTGCTCAAAATTCAAACAATAAA
B5 showed a Kd [7] of 0.4 ± 0.1 nM.

B6: INV-GAT (dsDNA)
DNA 1: TTTGATGTTTGAATTTTGAGCATCAAA
DNA 2: TTTGATGCTCAAAATTCAAACATCAAA
B6 showed a Kd [7] of 2 ± 0.6 nM.

B7: F33 (dsDNA)
DNA 1: AAAGGTGTTTGAATTTTGAGCACCTTT
DNA 2: AAAGGTGCTCAAAATTCAAACACCTTT
B7 gave a Kd [8] of 0.6 ± 0.1 nM.

B8: F14 (dsDNA)
DNA 1: GGGTTTGTTTGAATTTTGAGCAAACCC
DNA 2: GGGTTTGCTCAAAATTCAAACAAACCC
Binder B8 has a Kd [7] of 0.5 ± 0.1 nM.

B9: INV±8G (dsDNA)
DNA 1: TTTAAGGTTTGAATTTTGAGCCTTAAA
DNA 2: TTTAAGGCTCAAAATTCAAACCTTAAA
Work on B9 yielded a Kd [7] of 250 ± 20 nM.

B10: INV±8T (dsDNA)
DNA 1: TTTAATGTTTGAATTTTGAGCATTAAA
DNA 2: TTTAATGCTCAAAATTCAAACATTAAA
For B10, the Kd [9] was 2.3 ± 0.7 nM.

B11: F1 (±8T) (dsDNA)
DNA 1: AAATTTGTTTGAATTTTGAGCAAATTT
DNA 2: AAATTTGCTCAAAATTCAAACAAATTT
B11 showed a Kd [2] of 0.5 ± 0.2 nM, a Kd [10] of 29 ± 0.2 nM and a Kd [11] of 0.3 ± 0.8 nM. It also gave a Kd [12] of 0.2 ± 0.07 nM.

B12: INV±8C (dsDNA)
DNA 1: TTTAACGTTTGAATTTTGAGCGTTAAA
DNA 2: TTTAACGCTCAAAATTCAAACGTTAAA
In the case of B12, the Kd [7] is reported as 6 ± 2 nM.

B13: F1±8G (dsDNA)
DNA 1: AAATTGGTTTGAATTTTGAGCCAATTT
DNA 2: AAATTGGCTCAAAATTCAAACCAATTT
B13 was tested, and the binding result [13] was “binds”, the Kd [2] was 450 ± 20 nM and the Kd [3] was 48 ± 5 nM.

B14: F35 (dsDNA)
DNA 1: AAATTAGTTTGAATCTCGAGCTAATTT
DNA 2: AAATTAGCTCGAGATTCAAACTAATTT
B14: binds [14].

B15: F18 (dsDNA)
DNA 1: AAATTTGTTGGAATTTTCAGCAAATTT
DNA 2: AAATTTGCTGAAAATTCCAACAAATTT
B15 showed a binding signal [15] of 10 fold weaker than F1.

B16: F1±9A (dsDNA)
DNA 1: AAATATGTTTGAATTTTGAGCATATTT
DNA 2: AAATATGCTCAAAATTCAAACATATTT
B16 gave a Kd [16] of 0.5 ± 0.2 nM.

B17: F28 (dsDNA)
DNA 1: AAATTTGTTTGAGCGTTGAGCAAATTT
DNA 2: AAATTTGCTCAACGCTCAAACAAATTT
B17 showed a Kd [2] of 470 ± 100 nM.

B18: F15 (dsDNA)
DNA 1: CCCTTTGTTTGAATTTTGAGCAAAGGG
DNA 2: CCCTTTGCTCAAAATTCAAACAAAGGG
With B18 the Kd [7] was 0.4 ± 0.2 nM.

B19: INV-CAT (dsDNA)
DNA 1: TTTCATGTTTGAATTTTGAGCATGAAA
DNA 2: TTTCATGCTCAAAATTCAAACATGAAA
For B19, the Kd [7] was 2.9 ± 1 nM.

B20: INV (dsDNA)
DNA 1: TTTAAAGTTTGAATTTTGAGCTTTAAA
DNA 2: TTTAAAGCTCAAAATTCAAACTTTAAA
Work on B20 yielded a Kd [17] of 33 ± 3 nM.

B21: F27 (dsDNA)
DNA 1: AAATTTGTTTGAACTTTGAGCAAATTT
DNA 2: AAATTTGCTCAAAGTTCAAACAAATTT
With B21 the Kd [2] was 2.8 ± 0.5 nM, the Kd [7] was 0.2 ± 0.1 nM and the Kd [3] was 3.5 ± 0.9 nM.

B22: F36 (dsDNA)
DNA 1: AAATTTGTTTGAATCTCGAGCAAATTT
DNA 2: AAATTTGCTCGAGATTCAAACAAATTT
B22: binds [18].

B23: F1±8A (dsDNA)
DNA 1: AAATTAGTTTGAATTTTGAGCTAATTT
DNA 2: AAATTAGCTCAAAATTCAAACTAATTT
B23: binds [13].

B24: F1±8U (dsDNA)
DNA 1: AAATTUGTTTGAATTTTGAGCAAATTT
DNA 2: AAATTUGCTCAAAATTCAAACAAATTT
modifications: deoxyuridine for T at ±8 in DNA
B24: binds [19].

B25: F16 (dsDNA)
DNA 1: GCGGTTGTTTGAATTTTGAGCAACCGC
DNA 2: GCGGTTGCTCAAAATTCAAACAACCGC
B25 gave a Kd [7] of 0.5 ± 0.2 nM.
